# Data taken from paper PMC7311396 (2020).
# Non-standard residues stand in square brackets, D forms with d. No end group written: not given here. Phe(4-NO2) = N[C@@H](Cc1ccc([N+](=O)[O-])cc1)C(=O)O; pS = N[C@@H](COP(=O)(O)O)C(=O)O; βAla = NCCC(=O)O
# B1: 14-3-3γ (natural protein)
# chain: MVDREQLVQKARLAEQAERYDDMAAAMKNVTELNEPLSNEERNLLSVAYKNVVGARRSSWRVISSIEQKTSADGNEKKIEMVRAYREKIEKELEAVCQDVLSLLDNYLIKNCSETQYESKVFYLKMKGDYYRYLAEVATGEKRATVVESSEKAYSEAHEISKEHMQPTHPIRLGLALNYSVFYYEIQNAPEQACHLAKTAFDDAIAELDTLNEDSYKDSTLIMQLLRDNLTLWTSDQQDDDGGEGNN
# Columns and labels:
# [1] = target: B1; assay: FP
# [2] = target: B1; assay: FP; competition with FITC-BiExoS
# [3] = target: FITC-labeled 14-3-3.1 (FITC label (position not given); phosphoserine fixed in the middle, flanked by four varied positions on either side; non-canonical amino acids; C-terminal motif Nph-β-Ser-(β-Ala/β-Ser)-Nph; …); assay: FP
binder,measurement,setting,value
"KVF[thiazolylalanine][pS][Phe(4-NO2)]S[βAla][Phe(4-NO2)]K-NH2 (not fully specified (residue 7); also: FITC label, position not given here, position 7 is a β-residue, identity not given here) [FITC-labeled 14-3-3.12]",Kd,[1],19 nM
"KVF[thiazolylalanine][pS][Phe(4-NO2)]S[βAla][Phe(4-NO2)]K-NH2 (not fully specified (residue 7); also: position 7 is a β-residue, identity not given here) [14-3-3.12, unlabeled]",IC50,[2],198 nM
B1,Kd,[3],5.7 nM
